Drawing on paper PMC5477518, this text covers uptake of hPSAP (1 μg/ml) by primary cortical neurons in the presence of GST-RAP (50 μg/ml), immunoblot for one molecule.

In the assay the target is LRP1, endogenous on primary cortical neurons (mouse (endogenous in primary cortical neurons)) (UniProt Q91ZX7).
Chain of UniProt Q91ZX7 (Q91ZX7 20-4545): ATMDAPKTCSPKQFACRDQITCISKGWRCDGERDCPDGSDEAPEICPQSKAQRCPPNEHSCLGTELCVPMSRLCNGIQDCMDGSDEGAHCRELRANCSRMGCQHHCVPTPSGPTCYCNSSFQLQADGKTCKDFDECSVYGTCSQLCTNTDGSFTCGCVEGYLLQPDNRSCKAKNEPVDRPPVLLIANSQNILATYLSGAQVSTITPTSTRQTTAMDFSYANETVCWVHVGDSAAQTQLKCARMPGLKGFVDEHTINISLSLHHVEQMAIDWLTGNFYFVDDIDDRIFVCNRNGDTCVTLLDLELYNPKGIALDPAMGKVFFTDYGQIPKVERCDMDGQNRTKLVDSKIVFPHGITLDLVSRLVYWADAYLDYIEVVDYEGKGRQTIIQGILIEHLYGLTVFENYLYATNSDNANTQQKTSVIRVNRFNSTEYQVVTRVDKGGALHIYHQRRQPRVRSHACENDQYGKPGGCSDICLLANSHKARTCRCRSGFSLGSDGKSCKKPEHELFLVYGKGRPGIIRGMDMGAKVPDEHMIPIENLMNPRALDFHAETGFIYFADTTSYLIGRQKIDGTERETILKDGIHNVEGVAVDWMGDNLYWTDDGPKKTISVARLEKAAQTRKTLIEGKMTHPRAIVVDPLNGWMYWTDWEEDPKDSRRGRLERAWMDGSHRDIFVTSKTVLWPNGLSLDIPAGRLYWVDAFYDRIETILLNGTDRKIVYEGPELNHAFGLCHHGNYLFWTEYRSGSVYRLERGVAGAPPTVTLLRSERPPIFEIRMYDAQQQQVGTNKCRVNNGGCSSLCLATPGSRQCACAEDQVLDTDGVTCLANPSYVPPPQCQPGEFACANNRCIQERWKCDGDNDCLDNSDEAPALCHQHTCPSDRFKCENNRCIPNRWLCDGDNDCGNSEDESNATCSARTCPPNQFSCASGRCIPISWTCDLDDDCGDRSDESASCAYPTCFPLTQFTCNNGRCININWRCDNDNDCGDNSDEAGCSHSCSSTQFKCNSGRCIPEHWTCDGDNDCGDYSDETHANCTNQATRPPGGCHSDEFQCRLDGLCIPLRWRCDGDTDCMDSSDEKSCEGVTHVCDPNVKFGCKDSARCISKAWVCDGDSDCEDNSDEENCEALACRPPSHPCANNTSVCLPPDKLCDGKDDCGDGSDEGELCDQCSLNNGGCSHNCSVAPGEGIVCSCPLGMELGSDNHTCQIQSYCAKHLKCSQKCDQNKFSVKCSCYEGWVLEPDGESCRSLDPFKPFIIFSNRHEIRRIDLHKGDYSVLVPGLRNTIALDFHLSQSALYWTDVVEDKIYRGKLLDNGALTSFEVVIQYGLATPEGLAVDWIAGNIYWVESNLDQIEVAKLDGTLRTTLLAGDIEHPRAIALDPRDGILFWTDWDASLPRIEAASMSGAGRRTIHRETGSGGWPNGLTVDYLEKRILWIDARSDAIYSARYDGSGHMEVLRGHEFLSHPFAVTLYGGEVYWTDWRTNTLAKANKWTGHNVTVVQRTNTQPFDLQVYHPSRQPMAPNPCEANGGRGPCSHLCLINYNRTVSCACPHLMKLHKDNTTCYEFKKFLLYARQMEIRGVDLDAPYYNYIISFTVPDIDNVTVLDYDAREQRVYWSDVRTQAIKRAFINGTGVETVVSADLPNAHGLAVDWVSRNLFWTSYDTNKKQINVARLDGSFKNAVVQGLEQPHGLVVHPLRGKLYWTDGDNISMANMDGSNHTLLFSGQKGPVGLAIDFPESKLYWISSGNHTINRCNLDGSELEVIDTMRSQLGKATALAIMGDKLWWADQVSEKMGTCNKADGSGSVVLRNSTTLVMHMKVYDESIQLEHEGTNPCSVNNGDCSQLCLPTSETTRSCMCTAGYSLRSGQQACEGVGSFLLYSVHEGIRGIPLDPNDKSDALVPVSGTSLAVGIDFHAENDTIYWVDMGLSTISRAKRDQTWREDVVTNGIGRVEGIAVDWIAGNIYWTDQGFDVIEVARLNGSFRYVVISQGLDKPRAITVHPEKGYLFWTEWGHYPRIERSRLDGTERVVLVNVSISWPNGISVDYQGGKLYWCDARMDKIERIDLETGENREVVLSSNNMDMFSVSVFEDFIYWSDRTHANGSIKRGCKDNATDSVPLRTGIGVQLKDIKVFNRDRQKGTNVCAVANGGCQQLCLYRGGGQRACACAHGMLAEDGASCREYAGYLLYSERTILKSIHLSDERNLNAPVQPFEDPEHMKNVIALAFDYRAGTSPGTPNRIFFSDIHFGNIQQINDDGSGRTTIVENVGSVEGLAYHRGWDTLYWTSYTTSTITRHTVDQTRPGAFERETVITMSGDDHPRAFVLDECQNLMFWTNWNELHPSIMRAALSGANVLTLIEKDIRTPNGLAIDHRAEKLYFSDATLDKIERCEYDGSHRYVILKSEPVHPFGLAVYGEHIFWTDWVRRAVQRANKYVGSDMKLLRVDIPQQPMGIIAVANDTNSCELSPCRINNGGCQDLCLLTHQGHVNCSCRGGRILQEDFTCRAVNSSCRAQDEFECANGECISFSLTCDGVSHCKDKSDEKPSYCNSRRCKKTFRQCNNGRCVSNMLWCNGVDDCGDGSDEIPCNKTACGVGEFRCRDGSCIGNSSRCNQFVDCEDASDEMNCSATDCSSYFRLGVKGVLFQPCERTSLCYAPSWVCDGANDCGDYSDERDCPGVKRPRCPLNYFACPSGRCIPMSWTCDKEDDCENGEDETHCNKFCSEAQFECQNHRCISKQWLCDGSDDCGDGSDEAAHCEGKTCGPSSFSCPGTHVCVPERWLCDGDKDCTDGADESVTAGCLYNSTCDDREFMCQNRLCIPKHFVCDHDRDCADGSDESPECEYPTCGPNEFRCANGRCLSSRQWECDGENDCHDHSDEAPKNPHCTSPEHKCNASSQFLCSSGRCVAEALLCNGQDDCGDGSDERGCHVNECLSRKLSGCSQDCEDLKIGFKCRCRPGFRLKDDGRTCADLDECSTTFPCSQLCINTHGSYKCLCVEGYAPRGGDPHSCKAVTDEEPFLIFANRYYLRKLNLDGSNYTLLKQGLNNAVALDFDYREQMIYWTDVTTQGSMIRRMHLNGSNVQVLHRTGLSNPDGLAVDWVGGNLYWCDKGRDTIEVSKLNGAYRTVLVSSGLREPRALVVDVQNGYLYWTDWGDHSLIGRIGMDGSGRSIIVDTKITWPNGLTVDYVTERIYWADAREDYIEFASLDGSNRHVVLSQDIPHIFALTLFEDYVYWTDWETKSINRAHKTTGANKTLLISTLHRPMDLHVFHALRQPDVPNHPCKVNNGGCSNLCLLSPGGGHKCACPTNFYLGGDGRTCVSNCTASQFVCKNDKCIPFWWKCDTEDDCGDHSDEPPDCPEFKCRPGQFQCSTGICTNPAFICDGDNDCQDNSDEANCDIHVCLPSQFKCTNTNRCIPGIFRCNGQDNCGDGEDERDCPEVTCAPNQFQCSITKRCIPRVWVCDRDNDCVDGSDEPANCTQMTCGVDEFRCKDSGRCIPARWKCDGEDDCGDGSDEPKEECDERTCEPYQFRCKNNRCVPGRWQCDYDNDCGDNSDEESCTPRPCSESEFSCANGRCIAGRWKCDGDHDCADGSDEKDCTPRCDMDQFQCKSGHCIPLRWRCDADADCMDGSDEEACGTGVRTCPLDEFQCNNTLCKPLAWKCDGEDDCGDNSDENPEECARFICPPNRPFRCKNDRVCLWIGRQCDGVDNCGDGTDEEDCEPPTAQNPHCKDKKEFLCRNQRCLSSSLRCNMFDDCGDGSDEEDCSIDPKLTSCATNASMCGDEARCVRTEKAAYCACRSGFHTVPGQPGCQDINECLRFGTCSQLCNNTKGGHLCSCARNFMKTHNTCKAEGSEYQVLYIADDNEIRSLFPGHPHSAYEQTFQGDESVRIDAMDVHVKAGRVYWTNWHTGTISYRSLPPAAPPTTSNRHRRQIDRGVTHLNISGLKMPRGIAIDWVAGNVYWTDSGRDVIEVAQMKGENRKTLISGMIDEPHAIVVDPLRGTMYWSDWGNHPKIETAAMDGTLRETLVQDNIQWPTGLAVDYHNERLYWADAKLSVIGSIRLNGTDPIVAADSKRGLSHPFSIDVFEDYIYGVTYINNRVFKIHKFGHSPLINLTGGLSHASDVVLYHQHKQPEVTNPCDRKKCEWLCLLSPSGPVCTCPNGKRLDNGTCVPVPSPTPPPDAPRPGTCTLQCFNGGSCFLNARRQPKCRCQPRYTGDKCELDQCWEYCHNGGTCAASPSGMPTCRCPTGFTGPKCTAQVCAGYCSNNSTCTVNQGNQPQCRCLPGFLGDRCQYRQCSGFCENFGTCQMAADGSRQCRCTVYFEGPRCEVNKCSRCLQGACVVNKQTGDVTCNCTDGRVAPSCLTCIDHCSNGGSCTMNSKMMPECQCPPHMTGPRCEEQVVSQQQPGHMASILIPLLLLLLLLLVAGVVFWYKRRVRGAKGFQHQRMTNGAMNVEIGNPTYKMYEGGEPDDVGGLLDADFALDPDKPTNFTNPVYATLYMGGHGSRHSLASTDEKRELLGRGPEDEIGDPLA

B1: Recombinant his-human PSAP (natural protein)
chain: GPVLGLKECTRGSAVWCQNVKTASDCGAVKHCLQTVWNKPTVKSLPCDICKDVVTAAGDMLKDNATEEEILVYLEKTCDWLPKPNMSASCKEIVDSYLPVILDIIKGEMSRPGEVCSALNLCESLQKHLAELNHQKQLESNKIPELDMTEVVAPFMANIPLLLYPQDGPRSKPQPKDNGDVCQDCIQMVTDIQTAVRTNSTFVQALVEHVKEECDRLGPGMADICKNYISQYSEIAIQMMMHMQPKEICALVGFCDEVKEMPMQTLVPAKVASKNVIPALELVEPIKKHEVPAKSDVYCEVCEFLVKEVTKLIDNNKTEKEILDAFDKMCSKLPKSLSEECQEVVDTYGSSILSILLEEVSPELVCSMLHLCSGTRLPALTVHVTQPKDGGFCEVCKKLVGYLDRNLEKNSTKQEILAALEKGCSFLPDPYQKQCDQFVAEYEPVLIEILVEVMDPSFVCLKIGACPSAHKPLLGTEKCIWGPSYWCQNTETAAQCNAVEHCKRHVWN
For B1, the uptake of hPSAP (1 μg/ml) by primary cortical neurons in the presence of GST-RAP (50 μg/ml), immunoblot was determined as 75%.
